Test results from paper PMC4938799, “LD Motif Recognition by Talin: Structure of the Talin-DLC1 Complex” (Structure(London, England:1993), 2016).

Tests used:
Assay type in all cases: cell-based
[1] = test system: A549 human non-small cell lung cancer line; experiment: Transwell cell migration assay; settings: transfected A549, transwell, 24 h; mean over three experiments
Excerpt: (§1) Figure 6 Talin R8 Mutations Disrupt the Interaction with DLC1 and Affect Its Biological Activity (A) Wild-type GST-talin fragments pull down more DLC1 than the 2E mutants. Extracts of HEK293T cells transfected with GFP-DLC1 and GST-talin constructs were subjected to pull-down assays with glutathione beads followed by immunoblotting with anti-GST and anti-DLC1 on the same membrane (top). The transfected GFP-DLC1 in each sample is shown by the anti-DLC1 blot (bottom) as a loading control. (B) Wild-type GST-talin fragments compete efficiently with endogenous talin to form a complex with DLC1. The supernatants collected after pull-down assay from (A) were reused for co-immunoprecipitation with an anti-talin antibody and blotted with anti-DLC1 (top). A small aliquot from each lane was blotted for endogenous talin as a loading control (bottom). (C) Co-expression of GST or GST-talin fragments (wild-type or 2E mutant) with GFP DLC1 in A549 cells. […] Transfected A549 cells were cultured in G418 for 3 weeks, and colonies counted and quantitated (top). […] Transfected A549 cells were grown for 3 weeks in soft agar, and colonies counted and quantitated (top). […] Lysates from migrated cells were quantitated (top), and representative microscopic images of the migrated cells are shown (bottom). […]

[2] = test system: A549 human non-small cell lung cancer line; experiment: Growth in soft agar; settings: transfected A549, 3 weeks; mean over three experiments
Excerpt: as §1

[3] = test system: A549 human non-small cell lung cancer line; experiment: G418 (monolayer) colony growth assay; settings: transfected A549, G418 for 3 weeks; mean over three experiments
Excerpt: as §1

B1: GST-R8: GST-tagged talin R8, amino acids 1,453–1,580 (protein)
chain: NSQAGQQGLVEPTQFARANQAIQMACQSLGEPGCTQAQVLSAATIVAKHTSALCNSCRLASARTANPTAKRQFVQSAKEVANSTANLVKTIKALDGDFTEENRAQCRAATAPLLEAVDNLSAFASNPE
modifications: left off: GST, end not stated, kept
no detectable biological activity: cell migration [1] | growth in soft agar [2] | colony growth [3]
